Groups on a side chain read outwards from the residue.

For this experiment, the target named is T1, H3(E5)2 branched peptide (not fully specified).
T1 chain: Ac-EEEEEGGK([Gly-Gly-Kme3‑VGGTAPAS])GGEEEEE-NH2
Put plainly: NMR titration.

B1: PSIP1 (LEDGF) PWWP domain PWWP (protein)
chain: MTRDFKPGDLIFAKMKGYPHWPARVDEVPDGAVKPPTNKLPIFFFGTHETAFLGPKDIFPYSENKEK
As a reminder, the Kd is the free concentration of one partner at which half of the binding sites on the other are occupied at equilibrium, for simple one-to-one binding. A lower Kd goes with higher affinity. The molecule B1 displayed a Kd of 360 µM.
